Changes are numbered by the printed parent chain.
B1: TSHB-4 (antibody, V domains shown)
VH: EVQLVQSGAEVKKPGESLKISCKASGYELTDNWIGWVRQKPGKGLEWMGIIYPGDSDTRYSPSFQGQVTISADKSISTAYLQWSSLKASDTAIYYCVGLDWNYNPLRYWGQGTLVTVSS
VL: QSVLTQPPSVSAAPGQKVTISCSGSSSDIGSNYVSWYQQFPGTAPKLLIYDNNKRPSAIPDRFSGSKSGTSATLGITGLQTGDEADYYCGTWDSRLGIAVFGGGTQLTVL
B2: TSHB-18 (antibody, V domains shown)
VH: B1 VH with E16Q, E28S, S77N, Q111P
VL: B1 VL with S27T, F40L, A58G
B3: TSHB-9 (antibody, V domains shown)
VH: B1 VH with E28S, I34T
VL: B1 VL
B4: TSHB-15 (antibody, V domains shown)
VH: B1 VH with E16Q, E28S, S77N, Q111P
VL: B1 VL with F40L, A58G, L96F
B5: TSHB-25 (antibody, V domains shown)
VH: EVQLVQSGAEVKKPGASVKVSCKASGYSLTDNWIGWVRQAPGQGLEWMGIIYPGDSDTRYAQKFQGRVTMTADKSTSTVYMELSSLRSEDTAVYYCVGLDWNYNPLRYWGQGTLVTVSS
VL: B1 VL with A12G, K17R, F40L, A58G, I59V, T73S, G75A, T81A, G82E, Q106K
B6: TSHB-6 (antibody, V domains shown)
VH: B1 VH with E28S, T30N
VL: B1 VL
B7: TSHB-21 (antibody, V domains shown)
VH: B1 VH with E16Q, E28S, S77N, Q111P
VL: B1 VL with F40L, A58G, G90A
B8: TSHB-10 (antibody, V domains shown)
VH: B1 VH with E28S, Q65K
VL: B1 VL
B9: TSHB-8 (antibody, V domains shown)
VH: B1 VH with E28S, I93M
VL: B1 VL
B10: TSHB-16 (antibody, V domains shown)
VH: B1 VH with E16Q, E28S, S77N, Q111P
VL: B1 VL with S31A, F40L, A58G
B11: TSHB-7 (antibody, V domains shown)
VH: B1 VH with E28S, T30K
VL: B1 VL
B12: TSHB-17 (antibody, V domains shown)
VH: B1 VH with E16Q, E28S, S77N, Q111P
VL: B1 VL with N32L, F40L, A58G
B13: TSHB-23 (antibody, V domains shown)
VH: B1 VH with E28S
VL: B1 VL with F40L, A58G

Assays:
[1] = biological target: T1, Soluble TSHR (22-260) protein (human, UniProt P16473 22-260); assay: SPR (Biacore T200, 25 C), antibody captured on anti-human Fc, soluble TSHR (22-260) as analyte, 1:1 fit;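 further: antibodies captured at 0.1 ug/mL on a CM5 sensor chip bearing anti-human Fc, with HBS-EP+ running buffer at pH 7.4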
T1 construct: range 22-260
Procedure: Measurements were taken on a Biacore T200 at 25 C using a CM5 chip coated with anti-human Fc. Test antibodies were captured at 0.1 ug/mL in HBS-EP+ (10 mM HEPES pH7.4, 150 mM NaCl, 3 mM EDTA, 0.05% Tween 20) assay buffer. […] A 1:1 binding kinetics fit was used to calculate kinetic parameters.

[2] = biological target: T2, soluble TSHR protein (ELISA coat) (human, UniProt P16473 22-260, limits assumed); assay: ELISA, plate coated with soluble TSHR, antibody at 300 nM, anti-human IgG Fc-HRP;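 further: TSHR coated at 2 µg/ml, bound antibody revealed by goat anti-human IgG Fc HRP, color developed with TMB and stopped with H2SO4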
Procedure: (§1) Select TSHR antibody variants were tested for their ability to bind TSHR in an ELISA. Briefly, soluble TSHR protein was coated onto a plate at 2 μg/ml in phosphate buffered saline (PBS). The plate was washed with PBS and blocked with 4% skim milk in PBS.
(§2) Following wash steps with 1×PBS-Tween 0.05%, bound human IgG was detected with peroxidase conjugated goat anti-human IgG (Fc specific)-HRP at 1:5000 dilution and the ELISA was developed with TMB reagent followed by H2SO4.

[3] = biological target: T2, soluble TSHR protein (ELISA coat); assay: ELISA, plate coated with soluble TSHR, antibody at 100 nM, anti-human IgG Fc-HRP;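 further: binding of antibody variants to soluble TSHR coated at 2 µg/ml, with colour developed using TMB substrate and stopped with H2SO4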
Procedure: as §1, §2

[4] = biological target: T2, soluble TSHR protein (ELISA coat); assay: ELISA, plate coated with soluble TSHR, antibody at 33.3 nM, anti-human IgG Fc-HRP;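 further: binding of antibody variants to plate-bound soluble TSHR (coated at 2 µg/ml), with bound human IgG detected by HRP conjugate and colour developed using TMB substrate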
Procedure: as §1, §2

Binder | Kd [1] | koff [1] | kon [1] | ELISA (OD 450) at 300 nM [2] | ELISA (OD 450) at 100 nM [3] | ELISA (OD 450) at 33.3 nM [4]
B1 | 2.41 nM | 0.000362 s⁻¹ | 150000 M⁻¹ s⁻¹ | 0.542 OD 450 | 0.453 OD 450 | 0.374 OD 450
B2 | 2.94 nM | 0.000368 s⁻¹ | 125000 M⁻¹ s⁻¹ | 0.55 OD 450 | 0.495 OD 450 | 0.42 OD 450
B3 | 6.53 nM | 0.000676 s⁻¹ | 104000 M⁻¹ s⁻¹ | 0.478 OD 450 | 0.452 OD 450 | 0.355 OD 450
B4 | 3.08 nM | 0.000372 s⁻¹ | 121000 M⁻¹ s⁻¹ | 0.569 OD 450 | 0.517 OD 450 | 0.443 OD 450
B5 |  |  |  | 0.367 OD 450 | 0.409 OD 450 | 0.38 OD 450
B6 | 3.73 nM | 0.000532 s⁻¹ | 142000 M⁻¹ s⁻¹ | 0.548 OD 450 | 0.493 OD 450 | 0.45 OD 450
B7 | 3.1 nM | 0.000357 s⁻¹ | 115000 M⁻¹ s⁻¹ | 0.552 OD 450 | 0.473 OD 450 | 0.395 OD 450
B8 | 2.94 nM | 0.000338 s⁻¹ | 115000 M⁻¹ s⁻¹ | 0.557 OD 450 | 0.496 OD 450 | 0.44 OD 450
B9 | 2.25 nM | 0.000344 s⁻¹ | 153000 M⁻¹ s⁻¹ | 0.586 OD 450 | 0.551 OD 450 | 0.471 OD 450
B10 | 2.7 nM | 0.000385 s⁻¹ | 142000 M⁻¹ s⁻¹ | 0.566 OD 450 | 0.487 OD 450 | 0.443 OD 450
B11 | 4.11 nM | 0.000477 s⁻¹ | 116000 M⁻¹ s⁻¹ | 0.555 OD 450 | 0.491 OD 450 | 0.443 OD 450
B12 | 8.25 nM | 0.000407 s⁻¹ | 49400 M⁻¹ s⁻¹ | 0.475 OD 450 | 0.402 OD 450 | 0.357 OD 450
B13 | 2.45 nM | 0.000344 s⁻¹ | 141000 M⁻¹ s⁻¹ | 0.538 OD 450 | 0.466 OD 450 | 0.512 OD 450

From US20250388688A1 (ETHYREAL BIO, published 2025)
